This data set is described as follows: yeast display, Sf9 membrane polyspecificity reagent, FACS + sequencing; frameworks hold sequencing errors. The method in brief:
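A nanobody's polyreactivity label depends on the gate it was sorted from. Yeast display cells were stained with 10% biotinylated, detergent-solubilized Sf9 membrane reagent for 1 hour at 4 °C, enriched on streptavidin microbeads and sorted by FACS. The low and high (top ~1%) gates were set on anti-HA fluorescence for expression and streptavidin fluorescence for reagent binding.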
With “QVQIVESGGGLVQAGASLRLSCAASGSISKSYAMGWYRQAPGKERELVAAISWRGGSTYADSVKGRFTISRDNAENTVYSLMNSLKPEDTAVYYCAATNYGSFWGGQSERYDYWGQGTQVTVSS”, the “polyreactivity (PSR sort gate)” value is “low polyreactivity”.
To “QVQLVESGGGLVQAGGSLRLSCAASGRTIRYNAMGWYRQAPGKERELVAAITGSGGSTYYADSVKGRFTISRDNAKNTVYLQMNSLKPEDTAVYYCNAVGIWFPIRLIVPYDYWGQGTQVTVSS” belongs “low polyreactivity”.
“QVQVVESGGGLVQAGGSLRLSCAASGSSFGVNAMGRYTQAPGKERELVASITWSGDNTYYADSVKGRFTISRDNAKNTVYLQMNSLKPEDTAVYYCAATIWIAYRGWYSDYNYWGQGTQVTVSS”: the “polyreactivity (PSR sort gate)” value is on record as “low polyreactivity”.
To “QVQLVESGGGLVQAGGSLRLSCAASGITFGANTMGWYRQAPGKERELVADITVTGDGTYYADSVKGRFTISRDNAKNTVYLQMNSLKPEDTAVYYCAADFWLVSFQWDFEYDYWGQGTQVTVSS” belongs “low polyreactivity”; to “QVQLVESGGGLVQAGGSLRLSCAASGRTFDYKAMGWYRQAPGKERELVAAIDVNGGDTYYADSVKGRFTISRDNAKNTVYLQMNSLKPEDTAVYYCAAERDARTDDYWGQGTQVTVSS”, “low polyreactivity”.
As for “QVQLVESGGGLVQAGGSLRLSCAASGFTFPSYAMGWYRQAPGKERELVAVISWGGTSTYYADSVKGRFTISRDNAKNTVYLQMNSLKPEDTAVYYCATTRRVPGEYWGQGTQVTVSS”, the “polyreactivity (PSR sort gate)” value is “high polyreactivity”.
In the case of “QVQLVESGGGLVQAGGSLRLSCAASGFTFRYNAMGWYRQAPGKERELVAAISSDGITSYADSVKGRFTISRDNAKNTVYLQMNSLKPEDTAVYYCAADWRWYSAWHFGYWGQGTQVTVSS” it was “high polyreactivity”.
“QVQLVESGGGLVQAGGSLRLSCAASGSIIAAYAMGWYRQAPGKERELVAAIRWNGGSTYYADSVKGRFTISRDNAKNTVYLQMISLKPEDTAVFYCAADYIYYPVYEFGYWGQGTQVTVSS”: the “polyreactivity (PSR sort gate)” value is reported as “low polyreactivity”.
To “LGQVVESGGGLVQAGGSLRLSCAASGRIFHRNTMGWYRQAPGKEWELVAAISGSTGRTYYADSVKGRFPISRDNAKTTVYLQMNSLKPEDTAVYYCAKVYRRSGSVARYDYGGQGTQVTVSS” belongs “high polyreactivity”.
To “QVQLVESGGGLVQAGGSLRLSCAASGSTFGYYAMGWYRQAPGKERELVASITWGGGSTYYADSVKGRFTISRDNAKNTVYLQMNSLKPEDTAVYYCAATILGGTWGYGSYTYYYWGHGTQVTVSS” belongs “low polyreactivity”.
“QVQLVESGGGLVQAGGSLRLICAAAGRTFWYNAMGWYRQAPGKERELVAVISSGAITYYADSVKGRFTISRDNAKNTVYLQMNSLKPEDTAVYYCAARSYLSLIDYWGQGTQVTVSS”: the “polyreactivity (PSR sort gate)” value is recorded as “high polyreactivity”.
To “QVQLVESGGGLVQAGGSLRLSFAASGFTFSAYAMGWYRQAPGKERELVASISGSAGSTYYADTVKGRFTISRYNAKNTVYLHMNSLKPEDTAVYYCNARRRQWQARYDYWGQGTQITVSS” belongs “high polyreactivity”; to “QVQLVESGGGLVQAGGSLRLSCAASVSIFIYYAMGWYRQAQGKERELVAAISYSDGDTYYADSVKGRFTISRDNAKNTVYLQMNSLKPEDTAVYYCAAEVPQYYDVGWEDYCGQGTQVTVSS”, “high polyreactivity”; to “QVQLVESGGGLVKAGGSLRLSCAASGLTFRVYAMGWYRQAPGKECELVATISRTGSTTYAESVQGRFTISRDNAKNTVYLQMNSLKPEDTAVYYCNARYYFLLWDSLAREYWGQGTQVTVTS”, “high polyreactivity”.
In the case of “QVQLVESGGGLVQAGGSLRLSCAASGFIFGYNAMGWYRQAPGKERELVAAITWIGGTTYYADSVKGRFTISRDNAKNTVYLQMNSLKPEDTAVYYCARQRSYGRSSYSYGYDYWGQGTQVTVSS” it was “high polyreactivity”.
In the case of “QVQLVESGGGLVQAGGSLRLSCAASGSILTYYAMGWYRQAPGKERELVAAINNIGGSTYYADSVKGRFTISRDNAKNTVYLQMNSLKPEDTAVYYCAKYYAWPYDYWGQGTQVTVSS” it was “low polyreactivity”; in that of “QVQLVESGGGLVQAGGSLRLSCAASGRIFRSYAMGWYRQAPGKERELVAAISQRGGSTYYADSVKGRFTISRDNAKNTVYLQMNSLKPEDTAVYYCNKERRNSGKFDYWGQGTQVTVSS”, “high polyreactivity”; in that of “QVQLVESGGGLVQAGGSLRLSCAASGINTAGYAMGWYRQAPGKERELVAAISTSGTSTYYADSVKGRFTISRDNAQNTVYLQMNSLQPEDTAVYYCAYTNYYGVGYYYWGQGTLVTVSS”, “low polyreactivity”.
For the sequence “QVQLVESGGGLVQAGGSLRLSCAASGFIFNYNAMGWYRQAPGKERELVAAISGTGVRTYYADSVKGRFTISRDNAKNTVYLQMNRLKPEDTAVYYCNAYYGYIPVSGYRNDYWGQGTQVTVSS”, the “polyreactivity (PSR sort gate)” value is given as “low polyreactivity”.
In the case of “QVQLVESGGGLVQAGGSLPLSCAASGRIYGGNVMGWYRQAPGKERELVAAISKRGDSTYYADSVKGRFTISRDNAKNTVYLQMNSLKPEDTAVYYCAAVRRGDRGTDMDYWGQGTQVTVSS” it was “high polyreactivity”; in that of “QVQLVESGGGLVQAGGSLRLSCAASGGIFQGYTMGWYRQAPGKERELVAAISRRGGSTYYADSVKGRFTNSRDNAKNTVYLQMNSVKPEDTAVYYCAAGKPLQLPRYDYWGQGTQVTVSS”, “low polyreactivity”; in that of “QVQLVESGGGLVQAGGSLRLSCAASGRTFYGYAMGWYRQAPGKERELVAAISFSGGRTYYADSVKGRFTISRDNAKNTVYLQMNSLKPEDTAVYYCNRGLYPFDWVQGTQVTVSS”, “high polyreactivity”.
In the case of “QVQLVESGGGLVQAGGSLRISCAASGSTFGEYALGWYRQAPGKERELVAVITSDDNTYYADSVKGRFTISRDNAKNTVYLQMNSLKPEDTAVYYCATDDRRRFKYWGQGTQVTVSS”, the “polyreactivity (PSR sort gate)” value is “high polyreactivity”.
To “QVQLVESGVGLVQAGGSLRLSCAASGRTFYVYAMGWNIQAPGKERELVAAISWGRGSTYYADSVKGRFTNSRDYAKNTVYLQMNSLQPEDTAVYYCADDKTRYRLGRDYWGQGTQVTVSS” belongs “low polyreactivity”; to “QVQLVESGGGLFQAGGSLRLSCAASGFNFDSNVMGWYRQAPGKERELVAAITGDDTTYYADSVKGRFTISRDNAKNTVYLQMNSLKPEDTAVYYCAADETESLEYTAYDMYYWGQGTQVTVSS”, “low polyreactivity”; to “QVQLVESGGGLVQAGGSLRLSCAASGRIFDVYAMGWYRQAPGKERALVAAITFSGGSTYYADSVKGRFTISRDNAKNTVYLQMNSLKPEDTAVYYCAAEYVDWFGDYDYWGQGTQVTVSS”, “high polyreactivity”.
In the case of “QVQLVESGGGLVQAGGSLRLSCAASGSILYGNAMGWYRQAPGKERELVAAISWRGGRTYYADSVKGRFTISRDNAKNTVYLQMNSLKPEDTAVYYCAAQIGLVSGRDYWGQGTQVTVSS” it was “high polyreactivity”.
For “QVQLVESGGGLVQAGGSLRLSCAASGRIFSYYAMGWYRQAPGKERELVASITSGGSTYADSVKGRFTISRDNAKNTVYLQMNSLKPEDTAVYYCNARKRHYYGYYYWGQGTQVTVSS”, the “polyreactivity (PSR sort gate)” value is recorded as “high polyreactivity”.
Take “QVQLVYSGGGLVQAGGSLRLSCAASGSTFYRYAMGWYRQAPGKERELVATITRSGGSTYYADSVKGRFTISRDNAKNTVYLQMNRLKPEDTAVYYCAVRLWFYYNYWGQGTQVTVSS”: the “polyreactivity (PSR sort gate)” value was “low polyreactivity”.
In the case of “QVQLVESGGGLVQAGGSLRLSCAASGFIFATYVMGWYRQAPGKERELVAAISWSGSSTFYADSVKGRFTISRDNAKNTVYLQMNSLKPEDTAVYYCAALGDYVGNDYWGQGTQVTVSS” it was “high polyreactivity”; in that of “QVQLVESGGGLVQAGGSLRLSCAASGSIFLRYAMGSYRQAPGKDRELVAAITRSGGSTYYADSVKGRFTISRDNANNTVDLQMNSLKPEDTAVYYCAAYTLVTVGYDYWGQGTQVTVSS”, “high polyreactivity”.
On to “QVQLVESGGGLVQAGGSLRLSCAASGIILGDYAMGWYRQAPGKERELVAAITSTGGRTYYADSVKGRFTISRDNAKNTVYLQMNSLKPEDTAVYYCAAQGSYRRYRPYYYWGQGTQVTVSS”, for which the “polyreactivity (PSR sort gate)” value is “high polyreactivity”.
With “QVKLVESGGGLVQAGGSLRLTCAASGSTLYAYAMGRYRQAPGKERELVAAISSRAVRTYYADSVKGRFTISRDNAKNTVYLQINSLKPEDTAVYYCAARGQAYSGDRMYYWGQGTQVTVSS”, the “polyreactivity (PSR sort gate)” value is “high polyreactivity”.
In the case of “QVQLVESGGGLVQAGGSLRLSCAASGFTFWRNTMGWYRQAPGKERELVAGISGSGGSTYYADSVKGRFTISRDNAKNTVYLQMNSLKPEDTAVYYCAVRGGYTWPTYNYWGQGTQVTVSS” it was “high polyreactivity”; in that of “QVQLVESGGGLVQAGGSLRLSCAASGFTLARYAMGWYRQATGKERELVAAITKRGGSTYYADSVKGRFTISRDNAMNTVYLQMNSLKPEDTAVYYCATYKRSSHYDYWGQGTQVTVSS”, “high polyreactivity”; in that of “QVQLVESGGGLVQAGGRLRLSCADSGIIFRAYTIGWYRQATGKERELVAGITSGGSTYYADSVKGRFTISRDNAKNTVYLQMNSLKPEDTAVYYCATYYGRWTPIPYEYWGQGTQVTVSS”, “high polyreactivity”.
On to “QVQLEEAGGGLVQAGGSLRLSCAASARIIARYAMGWYRQAPGKERELVAAITGSGGSTYYADSVKGLFTISRDHANNTVYLQMNCLKPEDTAVYYCAARSVYTYYRLDYWGQGTQVTVSS”, for which the “polyreactivity (PSR sort gate)” value was “high polyreactivity”.
To “QVQLEESGGGLVQAGGSLRLSCAASGLIFIYNTMGWYRQAPGKERQLVAAISGRGGSTYYADSVKGRFTISRDNAKNSVYLQMNSLKPEDTAVYYCAAQDTYHSYGLYSWGQGTQVTVSS” belongs “low polyreactivity”; to “QVQLLESGGGLVPAGGSLRLSCAASGRIFSRYAMGWYRQAPGKERELVAAISRNGGSTYYADSVKGRFTISRDNAKNTVYLQMISLKPEDTAVYYCAASYFIYHYDFDYWGQGTQVTVSS”, “high polyreactivity”.
In the case of “QVQLVESGGGLVQAGGSLRLSCAASGRIFDGNAMGWYRQAPGKERELVAAISSRGARTYYADSVKGRFTISRDNAKNTVYLQMNSLKPEDTAVYYCNKDLDSLSGAEYDYWGQGTQVTVSS” it was “high polyreactivity”.
To “QVQLVESGGGLVQAGGSLRLSCAASGLIFVYYTMGWYRQAPGKERELVARISQSGGTTYYADSVKGRFTISRDNAKNTVYLQMNSLKPEDTAVYYCNARRVGVHYRYDYWGQGTQVTVSS” belongs “high polyreactivity”.

The record behind these values is the nanobody polyreactivity screen of Harvey et al. (2022).
